Data from article PMC12748987.

Legend:
[1] = molecular target: GIRK2 homotetrameric channel (mouse GIRK2A) (mouse)
[2] = molecular target: GIRK2 homotetrameric channel (mouse GIRK2A) (mouse); remark: listed apart in the source
[3] = molecular target: GIRK1/2 heterotetrameric channel (GIRK1 with GIRK2) (not stated | mouse) (UniProt P63251)
[4] = molecular target: GIRK1/2HA heterotetrameric channel (GIRK1 with GIRK2HA) (not stated | mouse) (UniProt P63251)
[5] = molecular target: GIRK2HA homotetrameric channel (HA-tagged GIRK2) (mouse)
[6] = molecular target: GIRK1/2 heterotetrameric channel (GIRK1 with GIRK2) (not stated | mouse) (UniProt P63251); remark: listed apart in the source

Q: Which results are given for “Gβ·YFPGγ (Gβ1 coexpressed with N-terminally YFP-labeled Gγ2) (from UniProt P62873 1-340; P59768 1-71) (complex)”?
A: Kd, WTM model fit with fixed µ = 0.3 of single-channel Po against Gβ·YFPGγ surface density [1]: 17.3 µM; Kd, WTM model fit with fixed µ = 0.3 of whole-cell currents of GIRK2 or GIRK2HA against Gβ·YFPGγ surface density (mean of experiments) [2]: 31 µM; Kd, WTM model fit with fixed µ = 0.44 of whole-cell currents of GIRK2 or GIRK2HA against Gβ·YFPGγ surface density (mean of experiments) [2]: 11 µM; Kd, WTM model fit (µ = 0.3) of whole-cell currents against Gβ·YFPGγ surface density, mean of all experiments [3]: 5.5 µM; Kd, WTM model fit (µ = 0.3) of whole-cell currents against Gβ·YFPGγ surface density in individual oocytes (Fig. 4b, experiment #4) [4]: 9 µM; Kd, WTM model fit (µ = 0.3) of whole-cell currents against Gβ·YFPGγ surface density in individual oocytes (Fig. 4b, experiment #4) [5]: 45 µM

Q: How did the time constant of the single-exponential decay of channel activity (NPo) after excision of the patch into Gβγ-free bath solution with ATP and Na+ [6] turn out when “Gβγ (Gβ1γ2) coexpressed in Xenopus oocytes (from UniProt P62873 1-340; P59768 1-71) (complex)” was run?
A: Its time constant of the single-exponential decay of channel activity (NPo) after excision of the patch into Gβγ-free bath solution with ATP and Na+ is over 2 min.
